This test concerns the target T1, c-mpl receptor (Homo sapiens (Human), UniProt P40238 26-491, The MPL used for panning was biotinylated; the biotin site is not stated and is not carried by the letters.).
T1 construct: also called TPO receptor
T1 sequence: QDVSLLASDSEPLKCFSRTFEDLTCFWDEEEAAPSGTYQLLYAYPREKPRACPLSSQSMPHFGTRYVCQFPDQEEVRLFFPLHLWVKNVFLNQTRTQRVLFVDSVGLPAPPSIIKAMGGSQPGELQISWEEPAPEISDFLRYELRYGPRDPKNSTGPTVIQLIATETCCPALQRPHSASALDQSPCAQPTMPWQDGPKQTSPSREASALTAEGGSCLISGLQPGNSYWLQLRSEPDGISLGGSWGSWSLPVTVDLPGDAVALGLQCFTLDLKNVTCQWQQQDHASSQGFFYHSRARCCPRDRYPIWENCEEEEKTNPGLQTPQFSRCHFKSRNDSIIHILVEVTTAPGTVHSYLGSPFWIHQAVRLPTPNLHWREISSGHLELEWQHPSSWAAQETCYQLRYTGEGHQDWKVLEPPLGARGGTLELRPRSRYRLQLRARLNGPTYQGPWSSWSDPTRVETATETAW
Briefly: phage-ELISA. Background: ELISA stands for enzyme-linked immunosorbent assay.

Experimental findings from patent publication US20110275122A1 (Amgen, published 2011) are described below.

B1: SEQ ID NO: 268 (peptide)
peptide: IEGPSFTPWFHERRSHS
In turn, B1 registered a Relative activity of 110.

B2: SEQ ID NO: 281 (peptide)
peptide: IEGWWWQFYAHPQGDHS
The molecule B2 yielded a Relative activity of 95.

B3: SEQ ID NO: 289 (peptide)
peptide: IEGWPWQFYAHPQGDHS
In the case of B3, the Relative activity is 80.3.

B4: SEQ ID NO: 317 (peptide)
peptide: IEGWTWQFYAHPQGDHS
The molecule B4 registered a Relative activity of 24.2.

B5: SEQ ID NO: 300 (peptide)
peptide: IEGWSWQFYAHPKGDHS
For the molecule B5, the Relative activity turned out to be 52.6.

B6: SEQ ID NO: 302 (peptide)
peptide: IEGRHYQKWPARRLGHS
B6 gave a Relative activity of 52.

B7: SEQ ID NO: 263 (peptide)
peptide: IEGPTFKQWQKSRTKHS
B7 gave a Relative activity of 124.

B8: SEQ ID NO: 306 (peptide)
peptide: IEGEIWAGPGAARA
Take B8: the Relative activity worked out at 46.5.

B9: SEQ ID NO: 265 (peptide)
peptide: IEGPTFKQWQAARMHHS
B9: the Relative activity amounted to 122.

B10: SEQ ID NO: 307 (peptide)
peptide: IEGEALVFWWAARA
For B10, the Relative activity was 40.3.

B11: SEQ ID NO: 294 (peptide)
peptide: IEGEALVFWWRVRGGHS
Take B11: the Relative activity came to 73.9.

B12: SEQ ID NO: 271 (peptide)
peptide: IEGPTFKQWQVWRNRHS
B12 displayed a Relative activity of 108.

B13: SEQ ID NO: 308 (peptide)
peptide: IEGSYRERQQAARA
B13 yielded a Relative activity of 35.2.

B14: SEQ ID NO: 249 (peptide)
peptide: IEGEPVSDGKRRPRVHSLERVDAVHAKVGPSICAQIEGPTFKQWQKCKRAHS
B14 displayed a Relative activity of 150.

B15: SEQ ID NO: 272 (peptide)
peptide: IEGQSWLRRLHWKEEHS
B15 displayed a Relative activity of 108.

B16: SEQ ID NO: 253 (peptide)
peptide: IEGPTFKQWQRWRKMHS
In turn, B16 yielded a Relative activity of 144.

B17: SEQ ID NO: 266 (peptide)
peptide: IEGPTFKQWQACLHSHS
Turning to B17, the Relative activity turned out to be 114.

B18: SEQ ID NO: 255 (peptide)
peptide: IEGWWWQFYFHAKEDHS
Take B18: the Relative activity is 136.

B19: SEQ ID NO: 262 (peptide)
peptide: IEGWWWQFYFHPKEDHS
B19 gave a Relative activity of 124.

B20: SEQ ID NO: 260 (peptide)
peptide: IEGWWWQLYFHAKDDHS
Molecule B20 gave a Relative activity of 126.

B21: SEQ ID NO: 275 (peptide)
peptide: IEGPTFKQWQYWRAKHS
Turning to B21, the Relative activity turned out to be 105.

B22: SEQ ID NO: 248 (peptide)
peptide: IEGPTFKQWQKLRRVHS
On to B22, for which the Relative activity turned out to be 155.

B23: SEQ ID NO: 261 (peptide)
peptide: IEGPTFKQWQKLRRSHS
The molecule B23 showed a Relative activity of 125.

B24: SEQ ID NO: 247 (peptide)
peptide: IEGPTFKQWQKCRNMHS
For the molecule B24, the Relative activity was 164.

B25: SEQ ID NO: 270 (peptide)
peptide: IEGWWWQFYVHAKGDHS
Turning to B25, the Relative activity was determined as 109.

B26: SEQ ID NO: 285 (peptide)
peptide: IEGPTFEQWQHWRRGHS
In the case of B26, the Relative activity is 91.5.

B27: SEQ ID NO: 277 (peptide)
peptide: IEGWSWQFYFHAKGDHS
With B27, the Relative activity came to 104.

B28: SEQ ID NO: 304 (peptide)
peptide: IEGQEPTRLRLQMDRHS
Turning to B28, the Relative activity was 48.3.

B29: SEQ ID NO: 256 (peptide)
peptide: PSICAQIEGPTFKQWQTCMRAHS
The molecule B29 registered a Relative activity of 133.

B30: SEQ ID NO: 274 (peptide)
peptide: IEGPTFKQWQKWRKTHS
With B30, the Relative activity stood at 105.

B31: SEQ ID NO: 252 (peptide)
peptide: IEGPTFKQWQAWRKKHS
B31: the Relative activity was 146.

B32: SEQ ID NO: 280 (peptide)
peptide: IEGWPRQLYAHAKEDHS
Consider B32, for which the Relative activity was determined as 95.6.

B33: SEQ ID NO: 259 (peptide)
peptide: IEGWPWQLYVHPEGEHS
On to B33, for which the Relative activity was 129.

B34: SEQ ID NO: 297 (peptide)
peptide: IEGWTWQFYALPRGDHS
For the molecule B34, the Relative activity is 63.2.

B35: SEQ ID NO: 305 (peptide)
peptide: IAQVRMLGRFTLLVLSRARAASTQLSFQHSICAQIEGGAQTQWDAARA
B35 came in with a Relative activity of 47.4.

B36: SEQ ID NO: 291 (peptide)
peptide: IEGPTLHEWLRWLRQHS
Turning to B36, the Relative activity came to 78.3.

B37: SEQ ID NO: 276 (peptide)
peptide: IEGPTFKQWQVRQKTHS
B37: the Relative activity amounted to 105.

B38: SEQ ID NO: 257 (peptide)
peptide: IEGYVGGPYEQTNSLERVPPTLAWKYGPRTPSICAQIEGPTFKQWQQCLSDHS
The molecule B38 came in with a Relative activity of 131.

B39: SEQ ID NO: 284 (peptide)
peptide: IEGHGSQKPTAARALESTSSLTTRTRTTSICAQQDMVGPTIRQWLAARACI
Turning to B39, the Relative activity was found to be 92.1.

B40: SEQ ID NO: 258 (peptide)
peptide: IEGPTFKQWQGRSKRHS
B40: the Relative activity amounted to 131.

B41: SEQ ID NO: 250 (peptide)
peptide: IEGRWPPPQFPVTQQHSLERVGRPPPSVELPRPTFVCAQIEGPTFKQWQRCLREHS
B41 yielded a Relative activity of 149.

B42: SEQ ID NO: 288 (peptide)
peptide: IEGYWWYASWAARA
Take B42: the Relative activity was determined as 80.4.

B43: SEQ ID NO: 264 (peptide)
peptide: IEGWTWQFYVHPKGDHS
B43 came in with a Relative activity of 122.

B44: SEQ ID NO: 299 (peptide)
peptide: IEGPTLRQRLAARA
The molecule B44 had a Relative activity of 57.3.

B45: IEGPTLRQWLAARA (positive control) (peptide)
peptide: IEGPTLRQWLAARA
notes: Positive control of the phage-ELISA
B45 displayed a Relative activity of 150.

B46: SEQ ID NO: 269 (peptide)
peptide: IEGPTFKQWQWLRRHHS
In turn, B46 registered a Relative activity of 109.

B47: SEQ ID NO: 328 (peptide)
peptide: IEGPTFKQWQMLRRHHS
B47 displayed a Relative activity of 12.5.

B48: SEQ ID NO: 246 (peptide)
peptide: IEGQSWEFENDRVPAHSLERVLLLRRVPTEPSGPSICAQIEGPTFKQWQECINGHS
As for B48, the Relative activity amounted to 173.

B49: SEQ ID NO: 251 (peptide)
peptide: IEGPTFKQWQRWRLLHS
The molecule B49 showed a Relative activity of 149.

B50: SEQ ID NO: 278 (peptide)
peptide: IEGRTWQLYFHAKEEHS
Consider B50, for which the Relative activity is 102.

B51: SEQ ID NO: 286 (peptide)
peptide: IEGWIWRQWLAARA
B51 had a Relative activity of 91.4.

B52: SEQ ID NO: 287 (peptide)
peptide: IEGWIWRPWLAARA
In turn, B52 displayed a Relative activity of 83.3.

B53: SEQ ID NO: 290 (peptide)
peptide: IEGWVWCQWLAARA
B53 returned a Relative activity of 79.1.

B54: SEQ ID NO: 296 (peptide)
peptide: IEGWVWWPWLAARA
Molecule B54 returned a Relative activity of 63.5.

B55: SEQ ID NO: 301 (peptide)
peptide: IEGWVWRQWLAARA
Consider B55, for which the Relative activity was determined as 52.1.

B56: SEQ ID NO: 303 (peptide)
peptide: IEGFVGTVDWRQGRPHS
With B56, the Relative activity came out at 49.8.

B57: SEQ ID NO: 254 (peptide)
peptide: IEGRWPPPQFPVTEHHSLERVGRRPPNAQMPQSIFICGQNEGPTFQYCQRCLREHS
B57 returned a Relative activity of 137.
